Data taken from patent US20220168396A1, “MULTI-RECEPTOR AGONIST AND MEDICAL USE THEREOF” (published 2022).
Square brackets hold non-standard residues; d marks the D form. Ends that are not written are not given here. Aib = CC(C)(N)C(=O)O

T1: human glucose-dependent insulinotropic peptide receptor (human, UniProt P48546)
T1 sequence: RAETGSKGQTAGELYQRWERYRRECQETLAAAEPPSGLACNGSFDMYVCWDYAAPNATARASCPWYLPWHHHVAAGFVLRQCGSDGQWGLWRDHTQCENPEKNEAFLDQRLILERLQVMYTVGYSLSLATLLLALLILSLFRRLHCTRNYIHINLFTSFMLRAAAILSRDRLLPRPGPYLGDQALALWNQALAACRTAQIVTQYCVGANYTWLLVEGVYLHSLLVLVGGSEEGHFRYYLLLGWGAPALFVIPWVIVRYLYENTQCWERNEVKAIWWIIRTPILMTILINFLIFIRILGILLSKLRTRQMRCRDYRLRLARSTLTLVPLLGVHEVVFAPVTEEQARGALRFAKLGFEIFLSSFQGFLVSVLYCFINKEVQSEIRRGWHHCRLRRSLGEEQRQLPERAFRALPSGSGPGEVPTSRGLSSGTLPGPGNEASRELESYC

B1: Compound No. 63 (peptide)
peptide: Y[Aib]EGTFTSDYSIYLEKEAAKEFINWLLAGGPSSGAPPPS-NH2
modifications: N-terminus assumed
SMILES: CC[C@H](C)[C@H](NC(=O)[C@H](Cc1ccccc1)NC(=O)[C@H](CCC(=O)O)NC(=O)[C@H](CCCCN)NC(=O)[C@H](C)NC(=O)[C@H](C)NC(=O)[C@H](CCC(=O)O)NC(=O)[C@H](CCCCN)NC(=O)[C@H](CCC(=O)O)NC(=O)[C@H](CC(C)C)NC(=O)[C@H](Cc1ccc(O)cc1)NC(=O)[C@@H](NC(=O)[C@H](CO)NC(=O)[C@H](Cc1ccc(O)cc1)NC(=O)[C@H](CC(=O)O)NC(=O)[C@H](CO)NC(=O)[C@@H](NC(=O)[C@H](Cc1ccccc1)NC(=O)[C@@H](NC(=O)CNC(=O)[C@H](CCC(=O)O)NC(=O)C(C)(C)NC(=O)[C@@H](N)Cc1ccc(O)cc1)[C@@H](C)O)[C@@H](C)O)[C@@H](C)CC)C(=O)N[C@@H](CC(N)=O)C(=O)N[C@@H](Cc1c[nH]c2ccccc12)C(=O)N[C@@H](CC(C)C)C(=O)N[C@@H](CC(C)C)C(=O)N[C@@H](C)C(=O)NCC(=O)NCC(=O)N1CCC[C@H]1C(=O)N[C@@H](CO)C(=O)N[C@@H](CO)C(=O)NCC(=O)N[C@@H](C)C(=O)N1CCC[C@H]1C(=O)N1CCC[C@H]1C(=O)N1CCC[C@H]1C(=O)N[C@@H](CO)C(N)=O
B2: Compound No. 64 (peptide)
peptide: Y[Aib]EGTFTSDYSIYLEKEAAKEFVQWLLAGGPSSGAPPPS-NH2
modifications: N-terminus assumed
SMILES: CC[C@H](C)[C@H](NC(=O)[C@H](CO)NC(=O)[C@H](Cc1ccc(O)cc1)NC(=O)[C@H](CC(=O)O)NC(=O)[C@H](CO)NC(=O)[C@@H](NC(=O)[C@H](Cc1ccccc1)NC(=O)[C@@H](NC(=O)CNC(=O)[C@H](CCC(=O)O)NC(=O)C(C)(C)NC(=O)[C@@H](N)Cc1ccc(O)cc1)[C@@H](C)O)[C@@H](C)O)C(=O)N[C@@H](Cc1ccc(O)cc1)C(=O)N[C@@H](CC(C)C)C(=O)N[C@@H](CCC(=O)O)C(=O)N[C@@H](CCCCN)C(=O)N[C@@H](CCC(=O)O)C(=O)N[C@@H](C)C(=O)N[C@@H](C)C(=O)N[C@@H](CCCCN)C(=O)N[C@@H](CCC(=O)O)C(=O)N[C@@H](Cc1ccccc1)C(=O)N[C@H](C(=O)N[C@@H](CCC(N)=O)C(=O)N[C@@H](Cc1c[nH]c2ccccc12)C(=O)N[C@@H](CC(C)C)C(=O)N[C@@H](CC(C)C)C(=O)N[C@@H](C)C(=O)NCC(=O)NCC(=O)N1CCC[C@H]1C(=O)N[C@@H](CO)C(=O)N[C@@H](CO)C(=O)NCC(=O)N[C@@H](C)C(=O)N1CCC[C@H]1C(=O)N1CCC[C@H]1C(=O)N1CCC[C@H]1C(=O)N[C@@H](CO)C(N)=O)C(C)C
B3: Compound No. 65 (peptide)
peptide: Y[Aib]EGTFTSDYSIYLEKEAAKEFIQWLLAGGPSSGAPPPS-NH2
modifications: N-terminus assumed
SMILES: CC[C@H](C)[C@H](NC(=O)[C@H](Cc1ccccc1)NC(=O)[C@H](CCC(=O)O)NC(=O)[C@H](CCCCN)NC(=O)[C@H](C)NC(=O)[C@H](C)NC(=O)[C@H](CCC(=O)O)NC(=O)[C@H](CCCCN)NC(=O)[C@H](CCC(=O)O)NC(=O)[C@H](CC(C)C)NC(=O)[C@H](Cc1ccc(O)cc1)NC(=O)[C@@H](NC(=O)[C@H](CO)NC(=O)[C@H](Cc1ccc(O)cc1)NC(=O)[C@H](CC(=O)O)NC(=O)[C@H](CO)NC(=O)[C@@H](NC(=O)[C@H](Cc1ccccc1)NC(=O)[C@@H](NC(=O)CNC(=O)[C@H](CCC(=O)O)NC(=O)C(C)(C)NC(=O)[C@@H](N)Cc1ccc(O)cc1)[C@@H](C)O)[C@@H](C)O)[C@@H](C)CC)C(=O)N[C@@H](CCC(N)=O)C(=O)N[C@@H](Cc1c[nH]c2ccccc12)C(=O)N[C@@H](CC(C)C)C(=O)N[C@@H](CC(C)C)C(=O)N[C@@H](C)C(=O)NCC(=O)NCC(=O)N1CCC[C@H]1C(=O)N[C@@H](CO)C(=O)N[C@@H](CO)C(=O)NCC(=O)N[C@@H](C)C(=O)N1CCC[C@H]1C(=O)N1CCC[C@H]1C(=O)N1CCC[C@H]1C(=O)N[C@@H](CO)C(N)=O
B4: Compound No. 66 (peptide)
peptide: Y[Aib]EGTFTSDYSIYLEKEAAKEFVAWLLAGGPSSGAPPPS-NH2
modifications: N-terminus assumed
SMILES: CC[C@H](C)[C@H](NC(=O)[C@H](CO)NC(=O)[C@H](Cc1ccc(O)cc1)NC(=O)[C@H](CC(=O)O)NC(=O)[C@H](CO)NC(=O)[C@@H](NC(=O)[C@H](Cc1ccccc1)NC(=O)[C@@H](NC(=O)CNC(=O)[C@H](CCC(=O)O)NC(=O)C(C)(C)NC(=O)[C@@H](N)Cc1ccc(O)cc1)[C@@H](C)O)[C@@H](C)O)C(=O)N[C@@H](Cc1ccc(O)cc1)C(=O)N[C@@H](CC(C)C)C(=O)N[C@@H](CCC(=O)O)C(=O)N[C@@H](CCCCN)C(=O)N[C@@H](CCC(=O)O)C(=O)N[C@@H](C)C(=O)N[C@@H](C)C(=O)N[C@@H](CCCCN)C(=O)N[C@@H](CCC(=O)O)C(=O)N[C@@H](Cc1ccccc1)C(=O)N[C@H](C(=O)N[C@@H](C)C(=O)N[C@@H](Cc1c[nH]c2ccccc12)C(=O)N[C@@H](CC(C)C)C(=O)N[C@@H](CC(C)C)C(=O)N[C@@H](C)C(=O)NCC(=O)NCC(=O)N1CCC[C@H]1C(=O)N[C@@H](CO)C(=O)N[C@@H](CO)C(=O)NCC(=O)N[C@@H](C)C(=O)N1CCC[C@H]1C(=O)N1CCC[C@H]1C(=O)N1CCC[C@H]1C(=O)N[C@@H](CO)C(N)=O)C(C)C
B5: Compound No. 69 (peptide)
peptide: Y[Aib]EGTFTSDVSIYLDKIAAQEFVNWLLAGGPSSGAPPPS-NH2
modifications: N-terminus assumed
SMILES: CC[C@H](C)[C@H](NC(=O)[C@H](CCCCN)NC(=O)[C@H](CC(=O)O)NC(=O)[C@H](CC(C)C)NC(=O)[C@H](Cc1ccc(O)cc1)NC(=O)[C@@H](NC(=O)[C@H](CO)NC(=O)[C@@H](NC(=O)[C@H](CC(=O)O)NC(=O)[C@H](CO)NC(=O)[C@@H](NC(=O)[C@H](Cc1ccccc1)NC(=O)[C@@H](NC(=O)CNC(=O)[C@H](CCC(=O)O)NC(=O)C(C)(C)NC(=O)[C@@H](N)Cc1ccc(O)cc1)[C@@H](C)O)[C@@H](C)O)C(C)C)[C@@H](C)CC)C(=O)N[C@@H](C)C(=O)N[C@@H](C)C(=O)N[C@@H](CCC(N)=O)C(=O)N[C@@H](CCC(=O)O)C(=O)N[C@@H](Cc1ccccc1)C(=O)N[C@H](C(=O)N[C@@H](CC(N)=O)C(=O)N[C@@H](Cc1c[nH]c2ccccc12)C(=O)N[C@@H](CC(C)C)C(=O)N[C@@H](CC(C)C)C(=O)N[C@@H](C)C(=O)NCC(=O)NCC(=O)N1CCC[C@H]1C(=O)N[C@@H](CO)C(=O)N[C@@H](CO)C(=O)NCC(=O)N[C@@H](C)C(=O)N1CCC[C@H]1C(=O)N1CCC[C@H]1C(=O)N1CCC[C@H]1C(=O)N[C@@H](CO)C(N)=O)C(C)C
B6: Compound No. 70 (peptide)
peptide: Y[Aib]EGTFTSDYSIYLEEIAAQEFVNWLLAGGPSSGAPPPS-NH2
modifications: N-terminus assumed
SMILES: CC[C@H](C)[C@H](NC(=O)[C@H](CCC(=O)O)NC(=O)[C@H](CCC(=O)O)NC(=O)[C@H](CC(C)C)NC(=O)[C@H](Cc1ccc(O)cc1)NC(=O)[C@@H](NC(=O)[C@H](CO)NC(=O)[C@H](Cc1ccc(O)cc1)NC(=O)[C@H](CC(=O)O)NC(=O)[C@H](CO)NC(=O)[C@@H](NC(=O)[C@H](Cc1ccccc1)NC(=O)[C@@H](NC(=O)CNC(=O)[C@H](CCC(=O)O)NC(=O)C(C)(C)NC(=O)[C@@H](N)Cc1ccc(O)cc1)[C@@H](C)O)[C@@H](C)O)[C@@H](C)CC)C(=O)N[C@@H](C)C(=O)N[C@@H](C)C(=O)N[C@@H](CCC(N)=O)C(=O)N[C@@H](CCC(=O)O)C(=O)N[C@@H](Cc1ccccc1)C(=O)N[C@H](C(=O)N[C@@H](CC(N)=O)C(=O)N[C@@H](Cc1c[nH]c2ccccc12)C(=O)N[C@@H](CC(C)C)C(=O)N[C@@H](CC(C)C)C(=O)N[C@@H](C)C(=O)NCC(=O)NCC(=O)N1CCC[C@H]1C(=O)N[C@@H](CO)C(=O)N[C@@H](CO)C(=O)NCC(=O)N[C@@H](C)C(=O)N1CCC[C@H]1C(=O)N1CCC[C@H]1C(=O)N1CCC[C@H]1C(=O)N[C@@H](CO)C(N)=O)C(C)C
B7: Compound No. 71 (peptide)
peptide: Y[Aib]EGTFTSDYSIYLEEEAAKEFVNWLLAGGPSSGAPPPS-NH2
modifications: N-terminus assumed
SMILES: CC[C@H](C)[C@H](NC(=O)[C@H](CO)NC(=O)[C@H](Cc1ccc(O)cc1)NC(=O)[C@H](CC(=O)O)NC(=O)[C@H](CO)NC(=O)[C@@H](NC(=O)[C@H](Cc1ccccc1)NC(=O)[C@@H](NC(=O)CNC(=O)[C@H](CCC(=O)O)NC(=O)C(C)(C)NC(=O)[C@@H](N)Cc1ccc(O)cc1)[C@@H](C)O)[C@@H](C)O)C(=O)N[C@@H](Cc1ccc(O)cc1)C(=O)N[C@@H](CC(C)C)C(=O)N[C@@H](CCC(=O)O)C(=O)N[C@@H](CCC(=O)O)C(=O)N[C@@H](CCC(=O)O)C(=O)N[C@@H](C)C(=O)N[C@@H](C)C(=O)N[C@@H](CCCCN)C(=O)N[C@@H](CCC(=O)O)C(=O)N[C@@H](Cc1ccccc1)C(=O)N[C@H](C(=O)N[C@@H](CC(N)=O)C(=O)N[C@@H](Cc1c[nH]c2ccccc12)C(=O)N[C@@H](CC(C)C)C(=O)N[C@@H](CC(C)C)C(=O)N[C@@H](C)C(=O)NCC(=O)NCC(=O)N1CCC[C@H]1C(=O)N[C@@H](CO)C(=O)N[C@@H](CO)C(=O)NCC(=O)N[C@@H](C)C(=O)N1CCC[C@H]1C(=O)N1CCC[C@H]1C(=O)N1CCC[C@H]1C(=O)N[C@@H](CO)C(N)=O)C(C)C

Target: human glucagon-like peptide-1 receptor (human, UniProt P43220)
Assay: cell-based or functional assay

Row | Binder | Activity for human GLP-1R (EC50 nM), cAMP HTRF
1 | B1 | 0.01 nM
2 | B2 | 0.02 nM
3 | B3 | 0.013 nM
4 | B4 | 0.026 nM
5 | B5 | 0.052 nM
6 | B6 | 0.017 nM
7 | B7 | 0.017 nM

Target: T1, human glucose-dependent insulinotropic …
Assay: cell-based or functional assay

Row | Binder | Activity for human GIPR (EC50 nM), cAMP HTRF
8 | B1 | 0.02 nM
9 | B2 | 0.033 nM
10 | B3 | 0.027 nM
11 | B4 | 0.054 nM
12 | B5 | 0.12 nM
13 | B6 | 0.017 nM
14 | B7 | 0.042 nM
